Test results: patent US20210261622A1 (Janssen / Centocor, published 2021)
Where two headings read alike, the source gives them in different places. Bridge positions count the residues as written; N and C are the ends. Square brackets hold non-standard residues; d marks the D form. Trp(7-Ph) = N[C@@H](Cc1c[nH]c2c(-c3ccccc3)cccc12)C(=O)O; Trp(5-CN) = N#Cc1ccc2[nH]cc(C[C@H](N)C(=O)O)c2c1; Trp(7-Me) = Cc1cccc2c(C[C@H](N)C(=O)O)c[nH]c12; 2Nal = N[C@@H](Cc1ccc2ccccc2c1)C(=O)O; AEF = NCCOc1ccc(C[C@H](N)C(=O)O)cc1; dNMeY = CN[C@H](Cc1ccc(O)cc1)C(=O)O; 3Pal = N[C@@H](Cc1cccnc1)C(=O)O; Cit = NC(=O)NCCC[C@H](N)C(=O)O; αMeL = CC(C)C[C@](C)(N)C(=O)O; Pen = CC(C)(S)[C@H](N)C(=O)O; Trp(5-Ca) = not defined here; αMeK = C[C@](N)(CCCCN)C(=O)O; Ac5c = NC1(C(=O)O)CCCC1; Thp = NC1(C(=O)O)CCOCC1; Abu = CC[C@H](N)C(=O)O; Sar = CNCC(=O)O

B1: Peptide No. 8 (peptide)
peptide: RXQTWQCFXXENNY
modifications: Ac-[(D)Arg]-[Abu]-Q-T-W-Q-[Cys]-Phe[4-(2-aminoethoxy)]-[2-Nal]-[THP]-E-N-N-[(D)NMeTyr]-NH2; Abu-Cys thioether
B2: Peptide No. 117 (peptide)
peptide: Ac-[Pen]NT[Trp(7-Ph)]K(Ac)[Pen][AEF][2Nal][Thp]K(Ac)N[3Pal][Sar]-NH2
modifications: disulfide 1-6
SMILES: CC(=O)NCCCC[C@@H]1NC(=O)[C@H](Cc2c[nH]c3c(-c4ccccc4)cccc23)NC(=O)[C@H]([C@@H](C)O)NC(=O)[C@H](CC(N)=O)NC(=O)[C@@H](NC(C)=O)C(C)(C)SSC(C)(C)[C@@H](C(=O)N[C@@H](Cc2ccc(OCCN)cc2)C(=O)N[C@@H](Cc2ccc3ccccc3c2)C(=O)NC2(C(=O)N[C@@H](CCCCNC(C)=O)C(=O)N[C@@H](CC(N)=O)C(=O)N[C@@H](Cc3cccnc3)C(=O)N(C)CC(N)=O)CCOCC2)NC1=O
B3: Peptide No. 160 (peptide)
peptide: Ac-[Pen]NT[Trp(5-Ca)]K(Ac)[Pen][AEF][2Nal][Thp]EN[3Pal][Sar]-NH2
modifications: disulfide 1-6; reading uncertain; also: printed as Ac-[Pen]-N-T-[W(5-Ca)]-[Lys(Ac)]-[Pen]-Phe[4-(2-aminoethoxy)]-[2-Nal]-[THP]-E-N-[3Pal]-[Sarc]-NH2; Pen-Pen disulfide
B4: Peptide No. 235 (peptide)
peptide: Ac-[dR][Pen]NT[Trp(7-Me)]K(Ac)[Pen][AEF][2Nal][Ac5c]EN[3Pal][Sar]-NH2
modifications: disulfide 2-7
SMILES: CC(=O)NCCCC[C@@H]1NC(=O)[C@H](Cc2c[nH]c3c(C)cccc23)NC(=O)[C@H]([C@@H](C)O)NC(=O)[C@H](CC(N)=O)NC(=O)[C@@H](NC(=O)[C@@H](CCCNC(=N)N)NC(C)=O)C(C)(C)SSC(C)(C)[C@@H](C(=O)N[C@@H](Cc2ccc(OCCN)cc2)C(=O)N[C@@H](Cc2ccc3ccccc3c2)C(=O)NC2(C(=O)N[C@@H](CCC(=O)O)C(=O)N[C@@H](CC(N)=O)C(=O)N[C@@H](Cc3cccnc3)C(=O)N(C)CC(N)=O)CCCC2)NC1=O
B5: Peptide No. 121 (SEQ ID NO: 121) (peptide)
peptide: Ac-[Pen]NT[Trp(7-Me)]K(Ac)[Pen][AEF][2Nal][Thp]EN[3Pal][dNMeY]-NH2
modifications: disulfide 1-6
SMILES: CC(=O)NCCCC[C@@H]1NC(=O)[C@H](Cc2c[nH]c3c(C)cccc23)NC(=O)[C@H]([C@@H](C)O)NC(=O)[C@H](CC(N)=O)NC(=O)[C@@H](NC(C)=O)C(C)(C)SSC(C)(C)[C@@H](C(=O)N[C@@H](Cc2ccc(OCCN)cc2)C(=O)N[C@@H](Cc2ccc3ccccc3c2)C(=O)NC2(C(=O)N[C@@H](CCC(=O)O)C(=O)N[C@@H](CC(N)=O)C(=O)N[C@@H](Cc3cccnc3)C(=O)N(C)[C@H](Cc3ccc(O)cc3)C(N)=O)CCOCC2)NC1=O
B6: Peptide No. 85 (peptide)
peptide: Ac-[Pen]NT[Trp(7-Me)][Cit][Pen][AEF][2Nal][αMeL]K(Ac)N[dH]-NH2
modifications: disulfide 1-6
SMILES: CC(=O)NCCCC[C@H](NC(=O)[C@](C)(CC(C)C)NC(=O)[C@H](Cc1ccc2ccccc2c1)NC(=O)[C@H](Cc1ccc(OCCN)cc1)NC(=O)[C@H]1NC(=O)[C@H](CCCNC(N)=O)NC(=O)[C@H](Cc2c[nH]c3c(C)cccc23)NC(=O)[C@H]([C@@H](C)O)NC(=O)[C@H](CC(N)=O)NC(=O)[C@@H](NC(C)=O)C(C)(C)SSC1(C)C)C(=O)N[C@@H](CC(N)=O)C(=O)N[C@H](Cc1c[nH]cn1)C(N)=O

How the values were obtained:
Test in all cases: cell-based or functional assay
human IL-23R [1] = molecular target: T1, human IL-23R (human, UniProt Q5VWK5 24-629)
T1 sequence (looked up): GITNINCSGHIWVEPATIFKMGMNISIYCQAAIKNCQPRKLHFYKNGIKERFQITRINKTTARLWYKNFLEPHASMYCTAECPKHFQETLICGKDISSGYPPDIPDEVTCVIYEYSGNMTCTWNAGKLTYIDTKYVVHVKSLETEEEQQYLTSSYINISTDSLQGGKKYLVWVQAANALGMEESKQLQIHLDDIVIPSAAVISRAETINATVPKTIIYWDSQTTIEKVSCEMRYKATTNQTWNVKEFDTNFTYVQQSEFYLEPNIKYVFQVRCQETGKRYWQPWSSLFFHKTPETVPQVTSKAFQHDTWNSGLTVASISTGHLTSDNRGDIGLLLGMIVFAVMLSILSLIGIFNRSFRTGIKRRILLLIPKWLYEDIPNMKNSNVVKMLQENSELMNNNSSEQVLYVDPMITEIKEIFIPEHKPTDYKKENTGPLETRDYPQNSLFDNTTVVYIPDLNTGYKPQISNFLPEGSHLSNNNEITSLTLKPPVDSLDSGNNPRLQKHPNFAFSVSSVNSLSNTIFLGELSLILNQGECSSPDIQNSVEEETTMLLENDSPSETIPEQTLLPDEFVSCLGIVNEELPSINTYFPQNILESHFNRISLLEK

human IL-23R [2] = molecular target: T1, human IL-23R; remark: listed apart in the source
[3] = molecular target: T2, interleukin-23 receptor (IL-23R) (human, UniProt Q5VWK5 24-629)
T2 sequence (looked up): T1 sequence (looked up)

| Binder | PBMC pSTAT3 IC50 (human IL-23R [1]) | pStat3 HTRF IC50 (human IL-23R [1]) | also measured |
| --- | --- | --- | --- |
| B1 | 1 nM | – | – |
| Ac-[dR][Pen]NT[Trp(7-Me)]K(Ac)[Pen][AEF][2Nal][Thp]ENN[dNMeY]-NH2 (disulfide 2-7) [Peptide No. 88] | > 2 µM | – | – |
| B2 | – | 20 pM | – |
| Ac-[Pen]NT[Trp(7-(3-carboxamidophenyl))]K(Ac)[Pen][AEF][2Nal][Thp]EN[3Pal][Sar]-NH2 (disulfide 1-6 (inferred)) [Peptide No. 142] | – | 90 pM | – |
| Ac-[Pen]NT[Trp(5-Ph)]K(Ac)[Pen][AEF][2Nal][Thp]EN[3Pal][Sar]-NH2 (disulfide 1-6 (inferred)) [Peptide No. 150] | – | > 10 nM | – |
| Ac-[Pen]NT[Trp(5-CN)]K(Ac)[Pen][AEF][2Nal][Thp]EN[3Pal][Sar]-NH2 (disulfide 1-6 (inferred)) [Peptide No. 154] | – | > 10 nM | – |
| B3 | – | > 10 nM | – |
| B4 | – | – | PBMC pSTAT3 IC50 (human IL-23R [2]): 10 pM |
| Ac-[Abu]QT[Trp(7-Me)]K(Ac)C[AEF][2Nal][αMeK]K(Ac)N[dK][Sar]-NH2 (thioether 1-6) [Peptide No. 17] | 0.791 nM | – | – |
| Ac-[Abu]QT[Trp(7-Ph)]K(Ac)C[AEF][2Nal][αMeK]K(Ac)N[dK][Sar]-NH2 (thioether 1-6) [Peptide No. 18] | 1.1 nM | – | – |
| B5 | – | – | IC50, NK Cell Assay (IFNγ in supernatant of human NK cells stimulated with IL-23 and IL-18) [3]: 0.04 nM |
| B6 | 3 nM | – | – |
